Laboratory results as given in PMC10728100, “Structural and biochemical investigations of a HEAT-repeat protein involved in the cytosolic iron-sulfur cluster assembly pathway” (Communications Biology, 2023).
Numbering of substitutions follows the chain as printed. Values joined by “and” are separate entries in the source; they are usually repeats but may differ in a detail not shown here. Equal entries are not always repeated.

B1: ScLeu1 with N-terminal His tag (natural protein, S. cerevisiae, UniProt P07264 1-779, looked up)
chain: MVYTPSKGPRTLYDKVFDAHVVHQDENGSFLLYIDRHLVHEVTSPQAFEGLENAGRKVRRVDCTLATVDHNIPTESRKNFKSLDTFIKQTDSRLQVKTLENNVKQFGVPYFGMSDARQGIVHTIGPEEGFTLPGTTVVCGDSHTSTHGAFGSLAFGIGTSEVEHVLATQTIIQAKSKNMRITVNGKLSPGITSKDLILYIIGLIGTAGGTGCVIEFAGEAIEALSMEARMSMCNMAIEAGARAGMIKPDETTFQYTKGRPLAPKGAEWEKAVAYWKTLKTDEGAKFDHEINIEAVDVIPTITWGTSPQDALPITGSVPDPKNVTDPIKKSGMERALAYMGLEPNTPLKSIKVDKVFIGSCTNGRIEDLRSAAAVVRGQKLASNIKLAMVVPGSGLVKKQAEAEGLDKIFQEAGFEWREAGCSICLGMNPDILDAYERCASTSNRNFEGRQGALSRTHLMSPAMAAAAGIAGHFVDIREFEYKDQDQSSPKVEVTSEDEKELESAAYDHAEPVQPEDAPQDIANDELKDIPVKSDDTPAKPSSSGMKPFLTLEGISAPLDKANVDTDAIIPKQFLKTIKRTGLKKGLFYEWRFRKDDQGKDQETDFVLNVEPWREAEILVVTGDNFGCGSSREHAPWALKDFGIKSIIAPSYGDIFYNNSFKNGLLPIRLDQQIIIDKLIPIANKGGKLCVDLPNQKILDSDGNVLVDHFEIEPFRKHCLVNGLDDIGITLQKEEYISRYEALRREKYSFLEGGSKLLKFDNVPKRKAVTTTFDKVHQDW
notes: Leu1, isopropylmalate isomerase, S. cerevisiae; also called HisLeu1; source: purified
B2: untagged ScMet18 (S. cerevisiae Met18, His-SUMO tag removed by SUMO protease) (natural protein)
chain: MTPDELNSAVVTFMANLNIDDSKANETASTVTDSIVHRSIKLLEVVVALKDYFLSENEVERKKALTCLTTILAKTPKDHLSKNECSVIFQFYQSKLDDQALAKEVLEGFAALAPMKYVSINEIAQLLRLLLDNYQQGQHLASTRLWPFKILRKIFDRFFVNGSSTEQVKRINDLFIETFLHVANGEKDPRNLLLSFALNKSITSSLQNVENFKEDLFDVLFCYFPITFKPPKHDPYKISNQDLKTALRSAITATPLFAEDAYSNLLDKLTASSPVVKNDTLLTLLECVRKFGGSSILENWTLLWNALKFEIMQNSEGNENTLLNPYNKDQQSDDVGQYTNYDACLKIINLMALQLYNFDKVSFEKFFTHVLDELKPNFKYEKDLKQTCQILSAIGSGNVEIFNKVISSTFPLFLINTSEVAKLKLLIMNFSFFVDSYIDLFGRTSKESLGTPVPNNKMAEYKDEIIMILSMALTRSSKAEVTIRTLSVIQFTKMIKMKGFLTPEEVSLIIQYFTEEILTDNNKNIYYACLEGLKTISEIYEDLVFEISLKKLLDLLPDCFEEKIRVNDEENIHIETILKIILDFTTSRHILVKESITFLATKLNRVAKISKSREYCFLLISTIYSLFNNNNQNENVLNEEDALALKNAIEPKLFEIITQESAIVSDNYNLTLLSNVLFFTNLKIPQAAHQEELDRYNELFISEGKIRILDTPNVLAISYAKILSALNKNCQFPQKFTVLFGTVQLLKKHAPRMTETEKLGYLELLLVLSNKFVSEKDVIGLFDWKDLSVINLEVMVWLTKGLIMQNSLESSEIAKKFIDLLSNEEIGSLVSKLFEVFVMDISSLKKFKGISWNNNVKILYKQKFFGDIFQTLVSNYKNTVDMTIKCNYLTALSLVLKHTPSQSVGPFINDLFPLLLQALDMPDPEVRVSALETLKDTTDKHHTLITEHVSTIVPLLLSLSLPHKYNSVSVRLIALQLLEMITTVVPLNYCLSYQDDVLSALIPVLSDKKRIIRKQCVDTRQVYYELGQIPFE
notes: Met18 (MMS19 in humans), S. cerevisiae; Met18 gene amplified from genomic DNA; 118 kDa; model holds residues 9-225, 242-314 and 338-1029; Mixture of monomers, dimers, tetramers and hexamers in solution; hexamer and tetramer by cryo-EM; also called SUMO-cleaved ScMet18; source: E. coli Rosetta2(DE3), purified (Ni-NTA, gel filtration; tag cut with SUMO protease, Ni-NTA flow through); not shown: …
B3: SUMO-tagged ScMet18, wild type (N-terminal His-tag followed by SUMO solubility tag) (natural protein, S. cerevisiae)
chain: B2 chain
notes: Met18, S. cerevisiae; Met18 gene amplified from genomic DNA; 131 kDa with the tag; also called SUMOMet18; SUMOScMet18; source: E. coli Rosetta2(DE3), purified (Ni-NTA, gel filtration); not shown: His, N-terminal, kept; SUMO, N-terminal, kept

Legend:
[1] = biological target: B3; assay: pull-down; as the ScCia2 bait pull-down, but ScLeu1 and ScCia1 included in addition to the SUMO-tagged ScMet18 variant and the strep-tagged ScCia2 bait; Strep-Tactin XT resin; SDS-PAGE; settings: both partners purified
[2] = biological target: T1, SUMO-tagged ScMet18 I973A (S. cerevisiae, UniProt P40469 1-1032, I973A); assay: as above; settings: both partners purified
T1 construct: Met18, S. cerevisiae; substitution in HEAT-repeat 22; source: E. coli Rosetta2(DE3), purified (Ni-NTA, gel filtration); not shown: His, N-terminal, kept; SUMO, N-terminal, kept
T1 sequence: B2 chain with I973A

[3] = biological target: the molecule itself; assay: mass photometry; ScMet18 alone (SUMO-tagged or untagged) at 0.050 µM in 50 mM Tris pH 8.0, 100 mM NaCl, 1% glycerol, 5 mM BME
[4] = biological target: the molecule itself; assay: cryo-EM structure; chameleon-prepared grids; untagged ScMet18 at 2 µg/µL (15 µM) in 50 mM Tris pH 8.0, 100 mM NaCl, 1% glycerol, 1 mM BME; 24 °C
[5] = biological target: the molecule itself; assay: cryo-EM structure; Vitrobot-plunged grids; untagged ScMet18 at 1.2 mg/mL (9 µM) in 50 mM HEPES pH 7.5, 100 mM NaCl, 1% glycerol, 1 mM BME, 33 mM sodium acetate; 10 °C; D3 symmetry

| Binder | binding result [1] | binding result [2] | stoichiometry N [3] | stoichiometry N [4] | stoichiometry N [5] |
| --- | --- | --- | --- | --- | --- |
| B1 | binds | binds |  |  |  |
| B2 |  |  | 2 | 6 and 4 | 6 |
| B3 |  |  | 2 and 4 and 6 |  |  |
